Consider 43 variants from the Human Domainome abundance scans (Beltran et al. 2025).

The labels stand for the following.
B1: Formin-binding protein 4, residues 200 to 261; numbered along this chain, Q8N3X1 (parent)
chain: SGWQYDTQCSLAGVGIEMGDWQEVWDENTGCYYYWNTQTNEVTWELPQYLATQVQGLQHYQP

± gives the uncertainty stated by the source.

The variants in the series derive from B1. The series is described as follows: abundance fitness (aPCA) (normalised: wild type 0, dead -1); higher = more abundant; growth selection in yeast, the domain comes from the species named. Particulars: Homo sapiens.
In the case of SGWQYDTQCSLAGVGIEMGDWQEVWDENTGCYYYWNTQTNEVTWELSQYLATQVQGLQHYQP [P47S], the abundance fitness was -0.95 ± 0.13.

For SGWQYDTQCSLAGVGIEMGDWQEVWDENTGCYYYWNTQTNEVTWELHQYLATQVQGLQHYQP [P47H], the abundance fitness is -1 ± 0.29.

In the case of SGWQYDTQCSLAGVGIEMGDWQEVWDENTGCYYYWNTQTNEVTWELKQYLATQVQGLQHYQP [P47K], the abundance fitness was -0.274 ± 0.17.

Regarding SGWQYDTQCSLAGVGIEMGDWQEVWDENTGCYYYWNTQTNEVTWELYQYLATQVQGLQHYQP [P47Y], the abundance fitness is -1.11 ± 0.27.

Consider SGWQYDTQCSLAGVGIEMGDWQEVWDENTGCYYYWNTQTNEVTWELTQYLATQVQGLQHYQP [P47T], for which the abundance fitness was -1.01 ± 0.19.

In the case of SGWQYDTQCSLAGVGIEMGDWQEVWDENTGCYYYWNTQTNEVTWELMQYLATQVQGLQHYQP [P47M], the abundance fitness was -0.721 ± 0.13.

SGWQYDTQCSLAGVGIEMGDWQEVWDENTGCYYYWNTQTNEVTWELEQYLATQVQGLQHYQP [P47E]: the abundance fitness was -0.985 ± 0.22.

As for SGWQYDTQCSLAGVGIEMGDWQEVWDENTGCYYYWNTQTNEVTWELPQYAATQVQGLQHYQP [L50A], the abundance fitness was -0.822 ± 0.12.

As for SGWQYDTQCSLAGVGIEMGDWQEVWDENTGCYYYWNTQTNEVTWELPQYTATQVQGLQHYQP [L50T], the abundance fitness was -0.704 ± 0.16.

Consider SGWQYDTQCSLAGVGIEMGDWQEVWDENTGCYYYWNTQTNEVTWELPQYYATQVQGLQHYQP [L50Y], for which the abundance fitness was -0.738 ± 0.17.

For SGWQYDTQCSLAGVGIEMGDWQEVWDENTGCYYYWNTQTNEVTWELPQYSATQVQGLQHYQP [L50S], the abundance fitness was -0.613 ± 0.094.

With SGWQYDTQCSLAGVGIEMGDWQEVWDENTGCYYYWNTQTNEVTWELPQYPATQVQGLQHYQP [L50P], the abundance fitness was -0.741 ± 0.14.

SGWQYDTQCSLAGVGIEMGDWQEVWDENTGCYYYWNTQTNEVTWELPQYWATQVQGLQHYQP [L50W]: the abundance fitness was -0.48 ± 0.11.

Take SGWQYDTQCSLAGVGIEMGDWQEVWDENTGCYYYWNTQTNEVTWELPQYHATQVQGLQHYQP [L50H]: the abundance fitness is -0.732 ± 0.22.

Take SGWQYDTQCSLAGVGIEMGDWQEVWDENTGCYYYWNTQTNEVTWELPQYGATQVQGLQHYQP [L50G]: the abundance fitness was -0.767 ± 0.096.

For SGWQYDTQCSLAGVGIEMGDWQEVWDENTGCYYYWNTQTNEVTWELPQYNATQVQGLQHYQP [L50N], the abundance fitness was -1.06 ± 0.38.

As for SGWQYDTQCSLAGVGIEMGDWQEVWDENTGCYYYWNTQTNEVTWELPQYQATQVQGLQHYQP [L50Q], the abundance fitness was -0.7 ± 0.13.

Consider SGWQYDTQCSLAGVGIEMGDWQEVWDENTGCYYYWNTQTNEVTWELPQYMATQVQGLQHYQP [L50M], for which the abundance fitness is -0.52 ± 0.13.

Take SGWQYDTQCSLAGVGIEMGDWQEVWDENTGCYYYWNTQTNEVTWELPQYFATQVQGLQHYQP [L50F]: the abundance fitness is -0.716 ± 0.13.

Consider SGWQYDTQCSLAGVGIEMGDWQEVWDENTGCYYYWNTQTNEVTWELPQYIATQVQGLQHYQP [L50I], for which the abundance fitness is -0.214 ± 0.1.

With SGWQYDTQCSLAGVGIEMGDWQEVWDENTGCYYYWNTQTNEVTWELPQYEATQVQGLQHYQP [L50E], the abundance fitness was -0.488 ± 0.13.

As for SGWQYDTQCSLAGVGIEMGDWQEVWDENTGCYYYWNTQTNEVTWELPQYCATQVQGLQHYQP [L50C], the abundance fitness is -0.45 ± 0.11.

In the case of SGWQYDTQCSLAGVGIEMGDWQEVWDENTGCYYYWNTQTNEVTWELPQYRATQVQGLQHYQP [L50R], the abundance fitness is -0.82 ± 0.091.

As to SGWQYDTQCSLAGVGIEMGDWQEVWDENTGCYYYWNTQTNEVTWELPQYDATQVQGLQHYQP [L50D], the abundance fitness is -1.04 ± 0.26.

As for SGWQYDTQCSLAGVGIEMGDWQEVWDENTGCYYYWNTQTNEVTWELPQYKATQVQGLQHYQP [L50K], the abundance fitness is -0.719 ± 0.17.

As for SGWQYDTQCSLAGVGIEMGDWQEVWDENTGCYYYWNTQTNEVTWELPQYLETQVQGLQHYQP [A51E], the abundance fitness was -0.3 ± 0.1.

Regarding SGWQYDTQCSLAGVGIEMGDWQEVWDENTGCYYYWNTQTNEVTWELPQYLGTQVQGLQHYQP [A51G], the abundance fitness was -0.346 ± 0.072.

Consider SGWQYDTQCSLAGVGIEMGDWQEVWDENTGCYYYWNTQTNEVTWELPQYLPTQVQGLQHYQP [A51P], for which the abundance fitness was -0.752 ± 0.16.

With SGWQYDTQCSLAGVGIEMGDWQEVWDENTGCYYYWNTQTNEVTWELPQYLLTQVQGLQHYQP [A51L], the abundance fitness is -0.323 ± 0.083.

As for SGWQYDTQCSLAGVGIEMGDWQEVWDENTGCYYYWNTQTNEVTWELPQYLNTQVQGLQHYQP [A51N], the abundance fitness is -0.237 ± 0.33.

SGWQYDTQCSLAGVGIEMGDWQEVWDENTGCYYYWNTQTNEVTWELPQYLYTQVQGLQHYQP [A51Y]: the abundance fitness is -0.124 ± 0.16.

Turning to SGWQYDTQCSLAGVGIEMGDWQEVWDENTGCYYYWNTQTNEVTWELPQYLHTQVQGLQHYQP [A51H], the abundance fitness was -0.308 ± 0.28.

With SGWQYDTQCSLAGVGIEMGDWQEVWDENTGCYYYWNTQTNEVTWELPQYLKTQVQGLQHYQP [A51K], the abundance fitness is -0.025 ± 0.12.

With SGWQYDTQCSLAGVGIEMGDWQEVWDENTGCYYYWNTQTNEVTWELPQYLCTQVQGLQHYQP [A51C], the abundance fitness is -0.145 ± 0.11.

On to SGWQYDTQCSLAGVGIEMGDWQEVWDENTGCYYYWNTQTNEVTWELPQYLTTQVQGLQHYQP [A51T], for which the abundance fitness is -0.306 ± 0.13.

On to SGWQYDTQCSLAGVGIEMGDWQEVWDENTGCYYYWNTQTNEVTWELPQYLVTQVQGLQHYQP [A51V], for which the abundance fitness is -0.237 ± 0.097.

Regarding SGWQYDTQCSLAGVGIEMGDWQEVWDENTGCYYYWNTQTNEVTWELPQYLITQVQGLQHYQP [A51I], the abundance fitness was -0.703 ± 0.19.

Turning to SGWQYDTQCSLAGVGIEMGDWQEVWDENTGCYYYWNTQTNEVTWELPQYLMTQVQGLQHYQP [A51M], the abundance fitness is -0.245 ± 0.14.

For SGWQYDTQCSLAGVGIEMGDWQEVWDENTGCYYYWNTQTNEVTWELPQYLRTQVQGLQHYQP [A51R], the abundance fitness was -0.087 ± 0.065.

As for SGWQYDTQCSLAGVGIEMGDWQEVWDENTGCYYYWNTQTNEVTWELPQYLSTQVQGLQHYQP [A51S], the abundance fitness was -0.178 ± 0.078.

Take SGWQYDTQCSLAGVGIEMGDWQEVWDENTGCYYYWNTQTNEVTWELPQYLDTQVQGLQHYQP [A51D]: the abundance fitness is -0.388 ± 0.12.

For the variant SGWQYDTQCSLAGVGIEMGDWQEVWDENTGCYYYWNTQTNEVTWELPQYLQTQVQGLQHYQP [A51Q], the abundance fitness was -0.519 ± 0.13.

Consider SGWQYDTQCSLAGVGIEMGDWQEVWDENTGCYYYWNTQTNEVTWELPQYLWTQVQGLQHYQP [A51W], for which the abundance fitness was -0.175 ± 0.091.
